Columns and labels:
[1] = molecular target: Chlorella sorokiniana Rubisco holoenzyme (CsRubisco) (Chlorella sorokiniana UTEX1230 (endogenous in Chlorella cells)) (UniProt W8SUA8); assay: SPR; Rubisco immobilised as bait, fragments as analyte (prey); Biacore T100/T200, 25 °C; analyte injected at 15 μl/min for 30 s, 360 s dissociation; fit of y = Bmax·x/(KD + x); apparent KD; triplicate
[2] = molecular target: Chlamydomonas reinhardtii Rubisco (CrRubisco) (Chlamydomonas reinhardtii (endogenous in Chlamydomonas cells)) (UniProt P00877); assay: as above
[3] = molecular target: Chlorella sorokiniana Rubisco holoenzyme (CsRubisco) (Chlorella sorokiniana UTEX1230 (endogenous in Chlorella cells)) (UniProt W8SUA8); assay: native gel or EMSA; native PAGE gel-shift assay; Rubisco and fragments mixed for 30 min at room temperature; 50 mM Tris-HCl pH 8.0, 50 mM NaCl (Fig. 3a); 4-20% gels, 4 h at 100 V, 4 °C
[4] = molecular target: Chlorella sorokiniana Rubisco holoenzyme (CsRubisco) (Chlorella sorokiniana UTEX1230 (endogenous in Chlorella cells)) (UniProt W8SUA8); assay: cryo-EM structure; 0.5 μM CsRubisco and 16 μM α3–α4 in 200 mM sorbitol, 50 mM HEPES, 50 mM KOAc, 2 mM Mg(OAc)2, 1 mM CaCl2, pH 6.8; D4 map of the holoenzyme and C1 map after symmetry expansion

Chlamydomonas reinhardtii Rubisco (CrRubisco) (Chlamydomonas reinhardtii (endogenous in Chlamydomonas cells)), sequence (P08475 46-185 limits assumed, chain 2 of 2, other chains not shown): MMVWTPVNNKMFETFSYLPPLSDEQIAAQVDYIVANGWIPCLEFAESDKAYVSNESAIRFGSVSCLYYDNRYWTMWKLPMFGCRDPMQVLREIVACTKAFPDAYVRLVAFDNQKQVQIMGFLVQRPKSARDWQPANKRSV

Row | Kd [1] | Kd [2] | K0.5 (half-occupancy) [3] | percent of the CsRbcL sites occupied [4] | Substance
1 | 103 µM | 108 µM | – | – | CsLinker α3 fragment (residues 142–207) (domain or fragment)
2 | 1.21 µM | 1.3 µM | 1.2 µM | 23% | CsLinker α3–α4 fragment (residues 142–272) (domain or fragment)

From article PMC11570498
